Reference: article PMC3147155

Target: I95E mutant of the PAS-A domain of the Bacillus subtilis protein KinA (Bacillus subtilis)
Test: AUC

Substance “I95E mutant of the PAS-A domain of the Bacillus subtilis protein KinA (domain or fragment)” has a log(Ka) of 3.96, a log(k−) (log of koff) of -3.7 and a stoichiometry N of 2.
